According to patent US20210292414A1 (H LUNDBECK A S, published 2021):

T1: hBack
T1 chimeric human/tetraodon Sortilin extracellular region, BAP tag: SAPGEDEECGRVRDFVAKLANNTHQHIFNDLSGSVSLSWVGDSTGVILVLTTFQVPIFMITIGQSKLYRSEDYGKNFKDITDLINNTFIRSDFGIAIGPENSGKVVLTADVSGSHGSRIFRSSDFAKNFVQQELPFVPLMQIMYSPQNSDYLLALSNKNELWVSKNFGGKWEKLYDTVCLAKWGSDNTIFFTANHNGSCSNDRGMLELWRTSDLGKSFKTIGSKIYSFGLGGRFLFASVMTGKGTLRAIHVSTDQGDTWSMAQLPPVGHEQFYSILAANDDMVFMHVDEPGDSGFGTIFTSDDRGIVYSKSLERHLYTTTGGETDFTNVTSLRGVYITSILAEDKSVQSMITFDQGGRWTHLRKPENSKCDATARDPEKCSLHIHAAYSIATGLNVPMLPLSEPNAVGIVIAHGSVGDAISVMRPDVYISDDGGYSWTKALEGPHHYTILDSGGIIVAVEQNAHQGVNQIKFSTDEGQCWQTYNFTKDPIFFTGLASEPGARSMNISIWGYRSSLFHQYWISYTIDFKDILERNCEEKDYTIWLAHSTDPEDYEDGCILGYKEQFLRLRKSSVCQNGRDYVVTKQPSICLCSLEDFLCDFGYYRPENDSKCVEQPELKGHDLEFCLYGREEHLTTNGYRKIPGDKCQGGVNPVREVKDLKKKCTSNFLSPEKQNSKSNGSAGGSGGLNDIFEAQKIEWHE

T2: Sortilin SORTECDBAP_hB45678 (human/tetraodon chimera)
T2 construct: Shuffle construct: chimeric human/tetraodon Sortilin ECD with BAP tag
T2 chain: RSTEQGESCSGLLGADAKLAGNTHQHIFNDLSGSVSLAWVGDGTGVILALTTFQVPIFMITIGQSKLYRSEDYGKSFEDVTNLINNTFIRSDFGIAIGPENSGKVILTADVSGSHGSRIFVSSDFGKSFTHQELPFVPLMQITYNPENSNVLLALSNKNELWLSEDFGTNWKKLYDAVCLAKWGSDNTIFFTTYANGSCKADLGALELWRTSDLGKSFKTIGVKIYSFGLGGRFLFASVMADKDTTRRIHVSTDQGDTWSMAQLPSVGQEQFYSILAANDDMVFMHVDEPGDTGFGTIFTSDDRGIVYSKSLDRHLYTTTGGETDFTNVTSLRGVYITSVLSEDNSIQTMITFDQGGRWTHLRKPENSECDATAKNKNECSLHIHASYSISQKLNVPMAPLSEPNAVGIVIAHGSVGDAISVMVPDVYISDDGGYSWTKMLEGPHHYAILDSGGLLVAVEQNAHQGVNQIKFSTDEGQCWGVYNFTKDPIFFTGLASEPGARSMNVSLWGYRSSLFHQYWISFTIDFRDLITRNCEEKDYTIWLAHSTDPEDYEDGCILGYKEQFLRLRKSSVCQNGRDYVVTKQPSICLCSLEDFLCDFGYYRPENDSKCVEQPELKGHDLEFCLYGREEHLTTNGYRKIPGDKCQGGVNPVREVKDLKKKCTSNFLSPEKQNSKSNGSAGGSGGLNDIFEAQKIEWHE

T3: Sortilin SORTECDBAP_hB12390 (human/tetraodon chimera)
T3 construct: Shuffle construct: chimeric human/tetraodon Sortilin ECD with BAP tag
T3 chain: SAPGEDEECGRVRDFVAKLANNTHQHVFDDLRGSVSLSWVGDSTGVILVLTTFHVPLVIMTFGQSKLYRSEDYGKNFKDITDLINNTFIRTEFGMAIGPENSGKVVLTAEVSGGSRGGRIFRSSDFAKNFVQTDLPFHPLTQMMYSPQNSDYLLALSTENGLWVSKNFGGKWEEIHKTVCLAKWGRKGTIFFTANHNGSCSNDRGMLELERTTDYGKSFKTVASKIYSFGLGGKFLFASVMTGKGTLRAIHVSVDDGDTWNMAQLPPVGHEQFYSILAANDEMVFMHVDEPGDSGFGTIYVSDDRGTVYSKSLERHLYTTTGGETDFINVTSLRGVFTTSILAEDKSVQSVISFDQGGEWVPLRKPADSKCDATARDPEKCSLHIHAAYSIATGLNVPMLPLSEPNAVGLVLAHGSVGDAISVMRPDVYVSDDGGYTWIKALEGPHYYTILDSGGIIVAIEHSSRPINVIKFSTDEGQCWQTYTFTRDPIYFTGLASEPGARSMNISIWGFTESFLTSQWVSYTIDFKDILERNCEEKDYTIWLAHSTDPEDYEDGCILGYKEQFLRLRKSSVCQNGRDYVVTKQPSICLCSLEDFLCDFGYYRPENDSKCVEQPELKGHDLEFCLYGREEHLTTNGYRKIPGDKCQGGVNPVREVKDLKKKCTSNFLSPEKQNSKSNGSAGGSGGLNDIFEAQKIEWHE

T4: Sortilin SORTECDBAP_hB01-05 (human/tetraodon chimera)
T4 construct: Shuffle construct: chimeric human/tetraodon Sortilin ECD with BAP tag
T4 chain: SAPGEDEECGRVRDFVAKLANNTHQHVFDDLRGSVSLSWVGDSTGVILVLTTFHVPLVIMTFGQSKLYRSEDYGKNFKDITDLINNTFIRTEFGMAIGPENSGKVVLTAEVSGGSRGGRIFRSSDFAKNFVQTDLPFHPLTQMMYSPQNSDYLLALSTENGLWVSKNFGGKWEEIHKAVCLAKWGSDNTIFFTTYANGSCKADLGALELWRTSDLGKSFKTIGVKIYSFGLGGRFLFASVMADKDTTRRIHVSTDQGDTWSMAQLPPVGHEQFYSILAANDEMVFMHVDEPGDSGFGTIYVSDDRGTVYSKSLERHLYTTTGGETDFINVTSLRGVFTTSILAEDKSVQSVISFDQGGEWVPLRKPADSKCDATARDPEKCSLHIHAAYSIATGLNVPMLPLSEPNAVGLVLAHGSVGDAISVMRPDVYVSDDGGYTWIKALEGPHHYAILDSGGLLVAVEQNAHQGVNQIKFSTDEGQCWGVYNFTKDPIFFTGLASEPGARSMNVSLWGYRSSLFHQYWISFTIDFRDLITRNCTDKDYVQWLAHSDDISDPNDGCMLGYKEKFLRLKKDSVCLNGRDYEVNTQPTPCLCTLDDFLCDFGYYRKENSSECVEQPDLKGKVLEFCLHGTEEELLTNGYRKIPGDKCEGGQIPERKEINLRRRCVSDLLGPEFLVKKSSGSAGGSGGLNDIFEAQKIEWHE


Columns and labels:
Test in all cases: BLI (Octet384RED)
[1] = biological target: T1, hBack
[2] = biological target: T2, Sortilin SORTECDBAP_hB45678
[3] = biological target: T3, Sortilin SORTECDBAP_hB12390
[4] = biological target: T4, Sortilin SORTECDBAP_hB01-05

Binder | EC50 [1] [ng/mL] | EC50 [2] [ng/mL] | EC50 [3] [ng/mL] | binding result [4]
Antibody 6003-799 (antibody, human IgG1, V domains shown) VH: QVQLVESGGGVVQPGRSLRLSCAASGFTFSSYGMHWVRQAPGKGLEWVTVISYDGSNKYYADSVKGRFTISRDNSKNTLYLQMNSLRAEDTAVYYCAKLTGDAFDIWGQGTMVTVSS VL: EIVLTQSPATLSLSPGERATLSCRASQSVSSYLVWYQQKPGQAPRLLIYHASNRATGIPARFSGSGSGTDFTLTISSLEPEDFAVYYCQQRSNWPRITFGQGTRLEIK | 3.2 | 4.16 | 3.36 | no binding
Antibody 6003-822 (antibody, human IgG1, V domains shown) VH: EVQLLESGGGLVQPGESLTLSCAASGFTLSSYAMSWVRQAPGKGLEWVSSISGRLGTTYYAASVKGRFTISRDNSKNTLYLQMNSLRAEDTAIYSCAKAPSDAFDIWGQGTMVTVSS VL: EIVLTQSPATLSLSPGERATLSCRASQSVSSYLAWYQQKPGQAPRLLIYDASNRATGIPARFSGSGSGTDFTLTISSLEPEDFAVYYCQQRSNWPIFTFGPGTKVDIK | 2.59 | 2.08 | 1.89 | no binding

Results, then the binder that gave them:

EC50 [1] [ng/mL] | EC50 [2] [ng/mL] | EC50 [3] [ng/mL] | binding result [4] | Binder
1.54 | 2.23 | 1.84 | no binding | IgG1-6003-910 (antibody, V domains shown, also called Antibody 6003-910) VH: not shown VL: EIVLTQSPATLSLSPGERATLSCRASQSVSSYLVWYQQKPGQAPRLLIYDASNRATGIPARFSGSGSGTDFTLTISSLEPEDFAVYYCQQRSNWPPTFGQGTRLEIK
1.49 | 2.57 | 2.36 | no binding | IgG1-6003-972 (antibody, V domains shown, also called Antibody 6003-972) VH: QVQLVESGGGVVQPGRSLRLSCAASGFTFSDYAMHWVRRAPGKGLEWVVVISYDGSNKYYADSVKGRFTISRDNSKNTLYLQMNSLRAEDTAVYYCARDPSGGWYFDLWGRGTLVTVSS VL: EIVLTQSPATLSLSPGERATLSCRASQSVSSYLAWYQQKPGQAPRLLIYDASNRATGIPARFSGSGSGTDFTLTISSLEPEDFALYYCQQRSHWPRTFGQGTKVEIK
1.16 | 1.19 | 1.06 | no binding | Antibody 6003-900 (antibody, human IgG1, V domains shown, also called antibody 900; Sortilin human antibody 900) VH: EVQLVESGGGLVKPGGSLRLSCAASGFTFSSYSMNWVRQAPGKGLEWVSSISSSSSYIYYADSVKGRFTISRDNAKNSLYLQMNSLRAEDTAVYYCARRGSGSYDAFDIWGQGTMVTVSS VL: EIVLTQSPDFQSVTPKEKVTITCRASQSIGYSLHWYQQKPDQSPKLLIKYASQSFSGVPSRFSGSGSGTDFTLTINSLEAEDAAAYYCHQSSSLPLTFGGGTKVEIK
2.72 | 3.45 | 3.36 | no binding | Antibody 6003-886 (antibody, human IgG1, V domains shown) VH: QVQLVQSGAEVKKPGASVKVSCKASGYTFTKYGISWVRQAPGQGLEWMGWISAYNGNTNYAQKLQDRVTMTTDTFTSTAYMELRSLRSDDTAVYFCARDGPLTGDFTFYGMDVWGQGTTVTVSS VL: EIVLTQSPATLSLSPGERATLSCRASQSVSSYLAWYQQKPGQAPRLLIYDASNRATGIPARFSGSGSGTDFTLTISSLEPEDFAVYYCQQRSNWPPFTFGPGTKVDIK
